What was measured:
[1] = molecular target: -; assay: competition binding, 125I-PTH(1-15) tracer, HKRK-B28 cells
[2] = molecular target: hP1R (human) (UniProt Q03431); assay: competition binding, 125I-PTH(1-15) tracer, HKRK-B7 cells
[3] = molecular target: wild-type human P1R (human) (UniProt Q03431); assay: as above
wild-type human P1R (human), sequence (Q03431 27-593): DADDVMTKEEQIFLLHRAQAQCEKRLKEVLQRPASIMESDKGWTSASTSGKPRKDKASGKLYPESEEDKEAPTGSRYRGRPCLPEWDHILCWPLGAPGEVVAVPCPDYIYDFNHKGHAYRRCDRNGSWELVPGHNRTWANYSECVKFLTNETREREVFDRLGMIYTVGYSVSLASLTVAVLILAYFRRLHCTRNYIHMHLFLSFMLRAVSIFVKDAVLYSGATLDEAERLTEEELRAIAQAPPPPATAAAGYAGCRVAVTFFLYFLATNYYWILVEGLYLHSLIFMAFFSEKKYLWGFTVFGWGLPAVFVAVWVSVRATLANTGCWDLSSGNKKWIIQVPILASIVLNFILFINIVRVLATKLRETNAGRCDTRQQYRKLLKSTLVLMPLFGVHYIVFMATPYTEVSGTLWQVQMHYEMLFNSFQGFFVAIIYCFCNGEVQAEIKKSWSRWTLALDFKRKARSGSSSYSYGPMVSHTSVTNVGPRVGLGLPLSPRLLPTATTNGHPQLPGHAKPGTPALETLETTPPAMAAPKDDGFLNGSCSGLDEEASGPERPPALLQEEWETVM

[Ile^5, Trp^23, Tyr^36]PTHrP(5-36)NH2, sequence (P12272 41-72): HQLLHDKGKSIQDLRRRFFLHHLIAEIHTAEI
hP1R (human), sequence (Q03431 27-593): as the sequence (Q03431 27-593) above

Substance | IC50 [1] | also measured
[Aib1,3,M]PTH(1-21) | 18 nM | 
PTH(1-34) |  | IC50 [2]: 2 nM
[Ile^5, Trp^23, Tyr^36]PTHrP(5-36)NH2 (from UniProt P12272 41-72) |  | IC50 [3]: 50 nM

More lines, main results first:

IC50 [1] | Substance | also measured
4.8 nM | rPTH(1-34) | 
750 nM | [Aib3,M]PTH(3-21) | 
